US20230025280A1, “PH RESPONSIVE COMPOSITIONS, FORMULATIONS, AND METHODS OF IMAGING A TUMOR” (ONCONANO MEDICINE, INC, priority 2019, published 2023)
Several values for one entry are separate records, joined by “and”; a condition that tells them apart may be missing. Identical values can stand only once.

Assay: Phase 1 (1a/1b) pharmacokinetics: plasma concentrations after single IV dose (validated direct fluorescence reader assay), noncompartmental analysis
Type: in vivo, human
Conditions: for AUC0-24 hr / AUCall / AUClast / C10 m / Cmax / T1/2 / Tmax / Plasma Conc: Phase 1b; for AUC0-24 hr / AUCall / AUClast / C10 m / Cmax / T1/2 / Tmax: 1.2 mg/kg single IV; for Plasma Conc: 1.2 mg/kg
Source text: Phase 1 is a single-Principal Investigator, non-randomized, open-label, single-arm, cross-sectional study to evaluate the safety, PK profile, and imaging feasibility of Compound 1 in patients with solid cancers who require surgical excision. The main purpose of this study was to investigate the safety, PK, and feasibility of Compound 1 as an intra-operative optical imaging agent to detect tumors and metastatic lymph nodes in solid cancers. The study was intended to investigate the optimal dose range of Compound 1 for an adequate TBR and CNR of fluorescence obtained intraoperatively at 24 (±8) hours post dosing and with ex vivo specimens using ICG compatible cameras and imaging devices.
Phase 1 enrolled 30 patients with solid cancers (HNSCC, breast cancer, esophageal cancer, or colorectal cancer) who have a biopsy-confirmed diagnosis of respective tumor types and are scheduled to undergo surgical resection of the tumor. The study design included a standard 3+3 design for the dose-escalation portion (Phase 1a; N=18 maximum) followed by a dose-expansion portion (Phase 1b; N=15). All patients received a single I.V. dose of Compound 1, followed by routine surgery approximately 24 hours after infusion of Compound 1.
Phase 1a was a dose-finding study performed in 5 cohorts of 3 patients each. The dose levels evaluated were […], and 1.2 mg/kg, in this sequence. Inter-cohort dose escalation took place after the last patient in the previous cohort completed the Day 10 safety assessment. Safety, PK, and imaging feasibility were evaluated in both the Phase 1a and 1b portions of the study. Patient safety is assessed during the study and for up to 10 days post-dose.
Study design: Single Compound 1 IV dose was administered as a 1-5 minute IV infusion to patients in five cohorts (0.1, 0.3, 0.5, 0.8, and 1.2 mg/kg) with three patients per cohort in Phase 1a and 15 patients at a dose of 1.2 mg/kg in Phase 1b. Patient demographic information including tumor types is presented in Table 4 and 5 for Phase 1a and Table 5 for Phase 1b. Intertek Pharmaceutical Services (San Diego, Calif.) determined Compound 1 plasma concentrations using a validated direct fluorescence reader assay. Pacific BioDevelopment (Davis, Calif.) performed the PK analysis.
Sample collection: Blood samples were collected prior to infusion and at 10 minutes and 0.5, 1, 3, 8, 24, 48, 72, and 240 hours after infusion.
Analysis: Plasma concentration versus time profiles were generated for each patient. Pharmacokinetic parameters were estimated using Phoenix WinNonlin (version 8.0). According to SOP, concentrations reported as BQL were set to 0 except for the 0.5 h sample for subject #ON1102, which was set to LLOQ/2 ([…] value used in parameter calculations) and the 24 and 48 h samples.
If the coefficient of determination for the terminal slope estimation was less than 0.8, T1/2 was not reported (NR). AUC extrapolated to infinity is not reported for any data set because in all cases the % extrapolated AUC was greater than 20% and thus the AUCinf estimate would not be reliable. The concentration at 10 minutes, the first time point measured (C10m), was also reported for each patient.
The area under the plasma concentration versus time curves from dosing to the last time point with a measurable concentration (AUClast) was estimated by the linear trapezoid method. The last three or more time points were used to estimate the elimination rate constant (λz) which was used to estimate the terminal-phase half-life (T1/2) and AUC from zero to infinity (AUCINF) from the following equations: […]

PEO90-140-b-P(DBA60-150-r-ICG0-3-r-AMA0-3) [Compound 1]
AUC0-24 hr (mean): 638 µg·h/mL | AUCall (mean): 1840 µg·h/mL | AUClast (mean): 1180 µg·h/mL | C10 m (mean): 33.2 µg/mL | Cmax (mean): 34800 ng/mL | T1/2 (mean): 46.4 h | Tmax (mean): 0.967 h | AUC0-24 hr (median): 626 µg·h/mL | AUCall (median): 1460 µg·h/mL | AUClast (median): 1110 µg·h/mL | C10 m (median): 32.1 µg/mL | Cmax (median): 34100 ng/mL | T1/2 (median): 42.6 h | Tmax (median): 1.00 h | Plasma Conc (0.170 hr, individual subject): 27.5 µg/mL and 38.6 µg/mL and 30.3 µg/mL and 31.4 µg/mL and 25.5 µg/mL and 40.0 µg/mL and 47.6 µg/mL and 32.6 µg/mL and 31.3 µg/mL and 36.5 µg/mL and 32.1 µg/mL and 35.8 µg/mL and 33.0 µg/mL and 28.0 µg/mL and 28.5 µg/mL | Plasma Conc (0.170 hr, mean): 33.2 µg/mL | Plasma Conc (0.170 hr, median): 32.1 µg/mL | Plasma Conc (0.500 hr, individual subject): 29.2 μg/mL and 35.2 μg/mL and 30.3 μg/mL and 28.5 μg/mL and 27.6 μg/mL and 40.0 μg/mL and 44.1 μg/mL and 32.0 μg/mL (2×) and 28.9 μg/mL and 34.5 μg/mL and 32.9 μg/mL and 36.4 μg/mL and 31.4 μg/mL and 29.8 μg/mL | Plasma Conc (0.500 hr, mean): 32.9 µg/mL | Plasma Conc (0.500 hr, median): 32.0 µg/mL | Plasma Conc (1.00 hr, individual subject): 25.9 μg/mL and 33.0 μg/mL and 31.3 μg/mL (2×) and 32.6 μg/mL and 23.3 μg/mL and 42.2 μg/mL (2×) and 29.9 μg/mL (2×) and 37.7 μg/mL and 34.1 μg/mL and 35.4 μg/mL and 34.3 μg/mL and 26.8 μg/mL | Plasma Conc (1.00 hr, mean): 32.7 µg/mL | Plasma Conc (1.00 hr, median): 32.6 µg/mL | Plasma Conc (3.00 hr, individual subject): 27.5 μg/mL and 34.3 μg/mL (2×) and 32.4 μg/mL and 31.3 μg/mL and 25.0 μg/mL and 40.1 μg/mL and 35.3 μg/mL and 30.3 μg/mL and 29.6 μg/mL and 31.5 μg/mL and 33.3 μg/mL and 31.2 μg/mL and 26.4 μg/mL and 25.4 μg/mL | Plasma Conc (3.00 hr, mean): 31.2 µg/mL | Plasma Conc (3.00 hr, median): 31.3 µg/mL | Plasma Conc (8.00 hr, individual subject): 21.1 μg/mL and 28.3 μg/mL and 31.3 μg/mL and 26.1 μg/mL and 23.6 μg/mL (2×) and 35.8 μg/mL and 32.6 μg/mL and 25.0 μg/mL and 33.6 μg/mL and 27.9 μg/mL and 32.4 μg/mL and 27.8 μg/mL and 30.0 μg/mL and 24.5 μg/mL | Plasma Conc (8.00 hr, mean): 28.2 µg/mL | Plasma Conc (8.00 hr, median): 27.9 µg/mL | Plasma Conc (24.0 hr, individual subject): 18.9 μg/mL and 29.8 μg/mL and 15.5 μg/mL and 20.2 μg/mL and 15.0 μg/mL and 23.9 μg/mL and 22.7 μg/mL and 19.5 μg/mL and 26.2 μg/mL and 20.3 μg/mL (2×) and 21.2 μg/mL and 18.6 μg/mL and 25.6 μg/mL and 21.0 μg/mL | Plasma Conc (24.0 hr, mean): 21.2 µg/mL | Plasma Conc (24.0 hr, median): 20.3 µg/mL | Plasma Conc (48.0 hr, individual subject): BQL (BQL (<10 μg/mL), set = 0 for PK analysis) (2×) and 19.9 μg/mL and 18.5 μg/mL and 12.6 μg/mL and 12.0 μg/mL and 16.3 μg/mL and 13.3 μg/mL and 11.8 μg/mL and 15.0 μg/mL and 12.5 μg/mL and 10.2 μg/mL and 22.0 μg/mL and 12.8 μg/mL and 12.3 μg/mL | Plasma Conc (48.0 hr, mean): 12.6 µg/mL | Plasma Conc (48.0 hr, median): 12.6 µg/mL | Plasma Conc (72.0 hr, individual subject): BQL (BQL (<10 μg/mL), set = 0 for PK analysis) (8×) and 18.7 μg/mL and 14.9 μg/mL and 10.4 μg/mL and 12.0 μg/mL and 12.8 μg/mL and 13.8 μg/mL and 17.3 μg/mL | Plasma Conc (72.0 hr, mean): 6.66 µg/mL | Plasma Conc (72.0 hr, median): 0.00 µg/mL | Plasma Conc (240 hr, individual subject): BQL (BQL (<10 μg/mL), set = 0 for PK analysis) | Plasma Conc (240 hr, mean): 0.00 µg/mL | Plasma Conc (240 hr, median): 0.00 µg/mL | C10 in relation to dose (from 0.3 through 1.2 mg/kg): appears to be dose proportional
